From patent US20230357384A1 (NEXTCURE, published 2023)
Changes are numbered by the printed parent chain. One block for each binder: values may come before it.

Columns and labels:
[1] = molecular target: T1, FLRT3-His monomeric fusion protein (Homo sapiens (Human), UniProt Q9NZU0 29-528); test: kinetic affinity measurement with FLRT3-His monomer (Table 1)
T1 construct: also called FLRT3 monomer; not shown: His tag
T1 sequence: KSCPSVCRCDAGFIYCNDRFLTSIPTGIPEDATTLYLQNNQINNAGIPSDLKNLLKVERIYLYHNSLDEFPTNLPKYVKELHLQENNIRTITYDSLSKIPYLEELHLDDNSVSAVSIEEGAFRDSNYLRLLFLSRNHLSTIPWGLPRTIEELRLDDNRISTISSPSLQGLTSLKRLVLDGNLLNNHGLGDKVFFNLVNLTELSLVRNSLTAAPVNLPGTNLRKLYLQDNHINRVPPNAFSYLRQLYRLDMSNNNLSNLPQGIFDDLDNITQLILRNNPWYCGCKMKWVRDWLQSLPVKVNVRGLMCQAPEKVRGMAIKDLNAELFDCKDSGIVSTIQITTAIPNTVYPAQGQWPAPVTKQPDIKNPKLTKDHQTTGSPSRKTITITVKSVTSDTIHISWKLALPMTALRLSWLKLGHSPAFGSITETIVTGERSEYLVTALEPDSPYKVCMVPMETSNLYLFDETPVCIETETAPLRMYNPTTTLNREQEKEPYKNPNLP

[2] = molecular target: T2, FLRT3 (antigen of the binning assay of Table 2) (Homo sapiens (Human), UniProt Q9NZU0 29-528, limits assumed); test: antibody binning matrix (Table 2); row '1X Kinetic' (no first antibody), column antibody taken as binder
T2 construct: the whole entry for FLRT3 is named
T2 sequence: T1 sequence

[3] = molecular target: T2, FLRT3 (antigen of the binning assay of …); test: antibody binning matrix (Table 2); competitor: 15G11
[4] = molecular target: T2, FLRT3 (antigen of the binning assay of …); test: antibody binning matrix (Table 2); competitor: 1H5
[5] = molecular target: T2, FLRT3 (antigen of the binning assay of …); test: antibody binning matrix (Table 2); competitor: 5C2
human FLRT3 on cells [6] = molecular target: T3, human FLRT3 on cells (human, UniProt Q9NZU0 29-649); test: flow cytometry (AF647 MFI), FLRT3-293T-OKT3 cells, antibody titration
T3 construct: also called hFLRT3
T3 sequence: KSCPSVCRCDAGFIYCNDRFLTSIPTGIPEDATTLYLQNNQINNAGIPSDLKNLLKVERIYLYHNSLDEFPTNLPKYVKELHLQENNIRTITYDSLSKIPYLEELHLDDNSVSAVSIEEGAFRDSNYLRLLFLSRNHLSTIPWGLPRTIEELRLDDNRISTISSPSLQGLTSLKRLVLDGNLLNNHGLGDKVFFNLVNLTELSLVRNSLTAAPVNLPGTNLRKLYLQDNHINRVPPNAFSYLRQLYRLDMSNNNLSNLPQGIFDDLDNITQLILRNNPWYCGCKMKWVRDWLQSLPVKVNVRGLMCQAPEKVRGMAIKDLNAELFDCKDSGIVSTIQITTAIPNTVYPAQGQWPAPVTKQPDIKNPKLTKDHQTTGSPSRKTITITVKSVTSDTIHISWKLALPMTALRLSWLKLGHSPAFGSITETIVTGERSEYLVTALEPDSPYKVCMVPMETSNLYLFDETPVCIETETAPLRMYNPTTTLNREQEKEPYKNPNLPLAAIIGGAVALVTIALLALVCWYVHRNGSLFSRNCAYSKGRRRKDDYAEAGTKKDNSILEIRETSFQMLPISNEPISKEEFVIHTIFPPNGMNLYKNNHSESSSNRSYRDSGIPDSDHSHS

[7] = molecular target: T2, FLRT3 (antigen of the binning assay of …); test: antibody binning matrix (Table 2); competitor: 14D3
[8] = molecular target: T2, FLRT3 (antigen of the binning assay of …); test: antibody binning matrix (Table 2); competitor: 2F7
[9] = molecular target: T2, FLRT3 (antigen of the binning assay of …); test: antibody binning matrix (Table 2); competitor: 14B7
human FLRT3 on cells [10] = molecular target: T3, human FLRT3 on cells; test: flow cytometry on 293T cells transfected with human FLRT3, normalised MFI, non-linear fit; Exp 2
Excerpt: (§1) MFI values of each group were normalized within that group- i.e. largest value 100% and smallest value 0%.

human FLRT3 on cells [11] = molecular target: T3, human FLRT3 on cells; test: flow cytometry on 293T cells transfected with human FLRT3, normalised MFI, non-linear fit; Exp 1
Excerpt: as §1

human FLRT3 on cells [12] = molecular target: T3, human FLRT3 on cells; test: flow cytometry on A549 cells (endogenous hFLRT3), normalised MFI, non-linear fit
Procedure: Increasing concentrations of FLRT3 antibodies bound to A549 cells that express endogenous hFLRT3 (FIG. 19). Binding curves for the top three antibodies were performed (FIG. 20A). MFI values of each group were normalized within that group- i.e. largest value 100% and smallest value 0% (FIG. 20A). EC50 values were calculated based on non-linear regression fit (FIG. 20B).

[13] = molecular target: T1, FLRT3-His monomeric fusion protein; test: Octet, FLRT3 antibodies and FLRT3 monomer
human FLRT3 on cells [14] = molecular target: T3, human FLRT3 on cells; test: flow cytometry on 293T cells transfected with human FLRT3, normalised MFI, non-linear fit
Excerpt: as §1

[15] = molecular target: T4, mouse FLRT3 on transiently transfected 293T cells (mouse, UniProt Q8BGT1 29-649); test: flow cytometry (AF647 MFI), transiently transfected mFLRT3-293T cells
T4 construct: also called mFLRT3
T4 sequence: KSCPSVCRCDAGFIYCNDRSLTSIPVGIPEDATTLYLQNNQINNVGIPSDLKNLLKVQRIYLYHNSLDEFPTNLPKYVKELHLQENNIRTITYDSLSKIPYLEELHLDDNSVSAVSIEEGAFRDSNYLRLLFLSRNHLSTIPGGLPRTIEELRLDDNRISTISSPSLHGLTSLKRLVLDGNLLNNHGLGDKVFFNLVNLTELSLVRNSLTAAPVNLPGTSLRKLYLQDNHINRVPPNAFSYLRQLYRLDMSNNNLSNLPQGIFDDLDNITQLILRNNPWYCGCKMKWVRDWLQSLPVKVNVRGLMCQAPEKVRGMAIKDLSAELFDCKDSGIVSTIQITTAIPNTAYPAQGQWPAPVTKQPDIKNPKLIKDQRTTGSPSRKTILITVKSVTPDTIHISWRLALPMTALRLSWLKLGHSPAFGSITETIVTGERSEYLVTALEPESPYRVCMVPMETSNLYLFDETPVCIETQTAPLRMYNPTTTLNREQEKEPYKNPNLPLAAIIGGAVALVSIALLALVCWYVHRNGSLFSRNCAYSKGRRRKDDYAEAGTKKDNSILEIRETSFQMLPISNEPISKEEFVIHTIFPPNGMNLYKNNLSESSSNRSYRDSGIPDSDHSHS

binding result (human FLRT3 on cells [6]): no binding (tested: about 300 nM)
B6: 10C6 (antibody, V domains shown)
VH: EIQLQQSGAEMVKPGASVKISCKASGHSFTGYNMNWVKQSHEKSLEWIGNINPYYGSTSYNQKFKGKATLTVDKSSSTAYMQLNSLTSEDSAVYYCARGGYDDYFDYWGQGTTLTVSS
VL: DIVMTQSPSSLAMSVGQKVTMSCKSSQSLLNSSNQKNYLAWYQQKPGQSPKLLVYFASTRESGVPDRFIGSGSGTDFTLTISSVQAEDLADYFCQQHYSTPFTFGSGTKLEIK
notes: Variable domains only

binding result (human FLRT3 on cells [6]): no binding (tested: about 300 nM)
binding result [13]: no binding
B7: 13B2 (antibody, V domains shown)
VH: EIQLQQSGTELVKPGASVKISCKASGYSFTGYNMNWMKQSHGMSLEWIGNINPYYGSTSYNQKFKGKATLTIDKSSSTAYMQLNSLTSEDSAVYYCARDRKNWEYFFDYWGQGTTLTVSS
VL: ETTVTQSPASLSMAIGEKVTIRCITSTDIDDDMNWYQQKPGKPPKLLISEGNTLRPGVPSRFSSSGYGTDFVFTIENMLSEDVADYYCLQSDNLPYTFGGGTKLEIK
notes: Variable domains only

EC50 (human FLRT3 on cells [14]): < 5 nM
binning response (no name or unit printed) [2]: 0.947
binning response (no name or unit printed) [3]: 0.196
binning response (no name or unit printed) [4]: 0.644
EC50 (human FLRT3 on cells [10]): 3.24 nM
EC50 (human FLRT3 on cells [11]): 1.82 nM
binning response (no name or unit printed) [5]: -0.101
EC50 (human FLRT3 on cells [12]): 8.21 nM
binning response (no name or unit printed) [7]: -0.0406
binning response (no name or unit printed) [8]: 0.75
binding result [15]: binds
binning response (no name or unit printed) [9]: 1.36
B8: 14D3 (antibody, V domains shown)
VH: EIQLQQSGAELVKPGASVKISCKASGYSFTGYNMNWVKQSHGKSLEWIGNITPYYGSASYNQKFKGKATLTVDKSSSTAYMQLNSLTSEDSAVYYCARRSYDYDENAMDYWGQGTSVTVSS
VL: DIVMTQSHKFMSTSVGDRVSITCKASQDLSTAVAWYQQKPGQSPKLLIYSASYRYTGVPDRFTGSGSGTDFTFTISSVQAEDLAVYYCQQHYSTPLTFGAGTKLELK
notes: Variable domains only

Further lines, the binder ahead of its results:

B1: 20C3 (antibody, V domains shown)
VH: EVKLEESGGGLVQPGGSMKLSCVVSGFTFSNYWMNWVRQSPEKGLEWVAQIRLKSDNYATHYAESVKGRFTISRDDSKSSVYLQMNNLRAEDTGIYYCTGESNIYYGYFDYWGQGTTLTVSS
VL: QIVLTQSPAIMSASPGEKVTMTCSASSSVSYMHWYQQKSGTSPKRWIYDTSKLASGVPARFSGSGSGTSYSLTISSMEAEDAATYYCQQWSGNPYTFGGGTKLEIK
notes: Variable domains only
Kd [1]: 2.21 nM
koff [1]: 0.000207 s⁻¹
kon [1]: 86200 M⁻¹ s⁻¹

B2: 1H5 (antibody, V domains shown)
VH: EVQLQQSGPELVKPGASVKMSCKASGYTFTDYYMNWVKQSHGKSLEWIGRVNPSNGVTSYNQKFKGKAALTVDKSLSTAYMQLNSLTSEDSAVYYCARDFLMDYWGQGTSVTVSS
VL: DIVMTQSHKFMSTSVGDRVTITCKASQDVGTAVAWYQQKPGQSPKLLIYWASTRHTGVPDRFTGSGSGTDFTLTISNVQSEDLADYFCQQYSSYPTFGGGTKLEIK
notes: Variable domains only
binning response (no name or unit printed) [2]: 0.947
binning response (no name or unit printed) [3]: 0.97
binning response (no name or unit printed) [4]: -0.0568
Kd [1]: 0.19 nM
koff [1]: 1.6e-05 s⁻¹
kon [1]: 140000 M⁻¹ s⁻¹
binning response (no name or unit printed) [5]: -0.26
EC50 (read off the curve) (human FLRT3 on cells [6]): ~10 nM
binning response (no name or unit printed) [7]: 0.549
binning response (no name or unit printed) [8]: -0.0098
binning response (no name or unit printed) [9]: 1.2

B3: 2F7 (antibody, V domains shown)
VH: EVQLQQSGPELVKPGASVKMSCKASGYTFTDYYMNWVKQSHGKSLEWIGRVYPSNSGASYNQKFKGKATLTVDKSLSTAYMQLNSLTSEDSAVYYCASSYYFDYWGQGTTLTVSS
VL: B2 VL with V15I, T20N, Y36F, G99A, K102T, I105L
notes: Variable domains only
binning response (no name or unit printed) [2]: 0.99
binning response (no name or unit printed) [3]: 0.798
binning response (no name or unit printed) [4]: -0.116
koff [1]: 0.000135 s⁻¹
kon [1]: 177000 M⁻¹ s⁻¹
binning response (no name or unit printed) [5]: -0.398
EC50 (read off the curve) (human FLRT3 on cells [6]): ~8 nM
binning response (no name or unit printed) [7]: 0.38
binning response (no name or unit printed) [8]: -0.0655
binning response (no name or unit printed) [9]: 1.06

B4: 12A4 (antibody, V domains shown)
VH: B2 VH with V57G, S59T, K63R, A69T, K74E
VL: B2 VL with T20S, A34T, Q42L, I48F, Q89H, S93N
notes: Variable domains only
EC50 (human FLRT3 on cells [10]): 17.7 nM
EC50 (human FLRT3 on cells [11]): 15.7 nM
Kd [1]: 0.218 nM
koff [1]: 3.24e-05 s⁻¹
kon [1]: 133000 M⁻¹ s⁻¹
EC50 (human FLRT3 on cells [12]): 251 nM

B5: 7H7 (antibody, V domains shown)
VH: EIQLQQSGAELVKPGASVKISCKASGYSFTGYNMNWVKQSHGKSLEWIGNINPYYGSTSYNQKFKGKATLTVDKSSNTAYMQLNSLTSEDSAVYYCARWGYGYDDWYFDVWGAGTTVTVSS
VL: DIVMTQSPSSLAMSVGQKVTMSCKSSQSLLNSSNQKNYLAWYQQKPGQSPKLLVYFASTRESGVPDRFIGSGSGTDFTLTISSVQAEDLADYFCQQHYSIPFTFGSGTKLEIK
notes: Variable domains only
Kd [1]: ≤ 0.001 nM
koff [1]: ≤ 1e-07 s⁻¹
kon [1]: 60500 M⁻¹ s⁻¹
